From PMC4004960
pKi: −log10 of the molar value.

Target: BRD4-BD1 (recombinant, NMR and fluorescence anisotropy) (UniProt O60885)
Assay: fluorescence polarisation

- pKi: < 2.52
Substance: Twist-K73ac/K76ac peptide (residues 68-79) (from UniProt Q15672 68-79)
